According to US20220259316A1 (SINOCELLTECH, published 2022):

Target: T1, EGFR ECD recombinant protein (UniProt P00533 25-645, limits assumed)
T1 construct: extracellular domain; also called erbB1; Her1
Assay: method not stated; recombinant EGFR ECD protein

Kd: 0.05 nM
B1: recombinant fully human anti-EGFR monoclonal antibody N6-3 (antibody, human IgG1, kappa, V domains shown)
VH: QVQLQESGPGLVKPSETLSLTCTVSGGSVSSGDYYWSWIRQSPGKGLEWIGHIYYSGNTNYNPSLKSRLTISIDTSKNQFSLKLSSVTAADTAIYYCVRDRVTGAFDIWGQGTMVTVSS
VL: DIVMTQSPSTLSASVGDRVTITCQASQDISNYLNWYQQKPGKAPKLLIYDASSLETGVPSRFSGSGSGTDFTFTISGLQPEDIATYFCQHFDHLPLAFGGGTKVEIKR
notes: also called recombinant human anti-EGFR monoclonal antibody (N6-3)
